Source: PMC9256654, “Mechanistic basis for maintenance of CHG DNA methylation in plants” (Nature Communications, 2022)

Key:
[1] = biological target: A. thaliana CMT3 (residues 42-839) (A. thaliana) (UniProt Q94F88)
[2] = biological target: Zea mays ZMET2 (residues 130-912), core fragment harboring the CD, BAH and MTase domains (Zea mays) (UniProt Q9AXT8)
[3] = biological target: Zea mays ZMET2 (residues 130-912), core fragment harboring the CD, BAH and MTase domains (Zea mays) (UniProt Q9AXT8); remark: listed apart in the source

Chain of Zea mays ZMET2 (residues 130-912), core fragment harboring the CD, BAH and MTase domains (Zea mays) (Q9AXT8 130-912): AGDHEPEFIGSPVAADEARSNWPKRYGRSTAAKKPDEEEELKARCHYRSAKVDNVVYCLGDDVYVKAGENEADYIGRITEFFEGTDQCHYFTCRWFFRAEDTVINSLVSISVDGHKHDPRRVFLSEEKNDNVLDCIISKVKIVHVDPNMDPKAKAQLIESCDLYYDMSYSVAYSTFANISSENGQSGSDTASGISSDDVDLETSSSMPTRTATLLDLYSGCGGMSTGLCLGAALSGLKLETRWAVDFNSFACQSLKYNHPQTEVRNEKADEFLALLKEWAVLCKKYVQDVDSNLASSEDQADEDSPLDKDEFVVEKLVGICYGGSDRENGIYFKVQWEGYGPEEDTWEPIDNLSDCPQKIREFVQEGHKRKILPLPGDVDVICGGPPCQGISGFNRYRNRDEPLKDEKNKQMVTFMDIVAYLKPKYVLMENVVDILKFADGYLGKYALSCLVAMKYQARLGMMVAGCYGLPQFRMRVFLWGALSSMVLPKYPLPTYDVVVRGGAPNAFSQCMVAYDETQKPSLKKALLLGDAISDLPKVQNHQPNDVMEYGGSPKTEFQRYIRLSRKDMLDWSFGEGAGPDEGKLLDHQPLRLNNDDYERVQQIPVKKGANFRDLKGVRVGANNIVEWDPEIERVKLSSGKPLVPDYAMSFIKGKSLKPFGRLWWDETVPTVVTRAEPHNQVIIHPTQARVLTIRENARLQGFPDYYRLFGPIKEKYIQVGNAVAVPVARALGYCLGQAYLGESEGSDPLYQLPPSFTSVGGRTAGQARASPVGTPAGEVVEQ
Chain of A. thaliana CMT3 (residues 42-839) (A. thaliana) (Q94F88 42-839): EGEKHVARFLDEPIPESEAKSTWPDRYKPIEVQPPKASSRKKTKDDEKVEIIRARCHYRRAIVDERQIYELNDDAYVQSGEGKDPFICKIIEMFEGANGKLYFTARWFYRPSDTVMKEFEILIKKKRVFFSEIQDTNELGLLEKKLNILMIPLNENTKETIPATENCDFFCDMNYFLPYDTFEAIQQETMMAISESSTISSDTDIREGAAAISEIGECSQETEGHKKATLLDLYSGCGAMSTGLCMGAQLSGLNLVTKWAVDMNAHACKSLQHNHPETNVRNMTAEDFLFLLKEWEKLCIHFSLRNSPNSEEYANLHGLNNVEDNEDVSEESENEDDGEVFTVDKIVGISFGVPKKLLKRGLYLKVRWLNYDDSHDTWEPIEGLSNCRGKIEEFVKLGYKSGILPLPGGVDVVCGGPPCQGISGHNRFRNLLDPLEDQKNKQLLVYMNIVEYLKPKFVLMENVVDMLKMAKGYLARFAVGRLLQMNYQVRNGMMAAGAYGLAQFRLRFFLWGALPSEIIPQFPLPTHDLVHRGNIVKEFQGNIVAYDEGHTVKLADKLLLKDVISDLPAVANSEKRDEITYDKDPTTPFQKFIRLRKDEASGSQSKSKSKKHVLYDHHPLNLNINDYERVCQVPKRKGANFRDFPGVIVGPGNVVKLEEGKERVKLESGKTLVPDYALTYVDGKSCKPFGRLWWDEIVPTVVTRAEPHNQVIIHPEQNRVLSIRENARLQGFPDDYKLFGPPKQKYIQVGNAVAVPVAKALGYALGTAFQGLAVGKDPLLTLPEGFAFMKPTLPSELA

Row | in vitro DNA methylation activity of CMT3, reduction of the enzymatic stimulation against H3 (1–32)K9me2 [1] [fold] | in vitro DNA methylation activity of ZMET2, reduction of the enzymatic stimulation against H3 (1–32)K9me2 [2] [fold] | in vitro DNA methylation activity of ZMET2 on hmCHG DNA, fold stimulation by the peptide [3] [fold] | in vitro DNA methylation activity of ZMET2 on unmodified CAG DNA, fold stimulation by the peptide [3] [fold] | Substance
1 | > 3 | > 3 |  |  | histone H3K9me2K18ac peptide residues 1-32, followed by a C-terminal tyrosine (from UniProt P68431 2-33)
2 |  |  | 15 | 6 | histone H3K9me2 peptide encompassing residues 1-32, followed by a C-terminal tyrosine (from UniProt P68431 2-33)
